Biological target: T1, CasΦ3 (Cas12j-3) (Biggiephage)
T1 chain: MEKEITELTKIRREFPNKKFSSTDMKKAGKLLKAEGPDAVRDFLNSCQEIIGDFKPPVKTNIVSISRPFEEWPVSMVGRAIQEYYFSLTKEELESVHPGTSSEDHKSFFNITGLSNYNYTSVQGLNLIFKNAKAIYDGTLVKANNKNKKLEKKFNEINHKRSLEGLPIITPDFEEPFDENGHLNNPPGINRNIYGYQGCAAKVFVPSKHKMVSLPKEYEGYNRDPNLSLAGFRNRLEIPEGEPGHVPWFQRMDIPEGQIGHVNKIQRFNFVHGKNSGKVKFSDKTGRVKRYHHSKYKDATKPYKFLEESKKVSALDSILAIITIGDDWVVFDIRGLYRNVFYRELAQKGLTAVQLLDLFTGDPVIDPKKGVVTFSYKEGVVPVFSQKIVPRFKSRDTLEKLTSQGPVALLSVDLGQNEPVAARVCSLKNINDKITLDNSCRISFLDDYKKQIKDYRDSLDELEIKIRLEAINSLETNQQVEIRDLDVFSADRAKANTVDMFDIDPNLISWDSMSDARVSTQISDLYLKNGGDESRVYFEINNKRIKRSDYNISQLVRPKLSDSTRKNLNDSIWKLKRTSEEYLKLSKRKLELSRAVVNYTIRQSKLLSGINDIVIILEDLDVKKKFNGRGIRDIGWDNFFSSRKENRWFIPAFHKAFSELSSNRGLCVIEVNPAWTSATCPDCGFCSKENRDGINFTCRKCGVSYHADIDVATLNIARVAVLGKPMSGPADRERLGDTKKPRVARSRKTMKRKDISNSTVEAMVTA
Assay: structure; cryo-EM 2.7 Å R-loop product complex; PAM TTC; Ni2+
Conditions: tags: C-terminal His6
Method: For the preparation of the Cryo-EM sample, Ni²⁺ was used as a catalytic ion instead of Mg²⁺ due to the higher yield obtained with this metal. CasΦ3 RNP was prepared as described before. 25 nmol of RNP and 37 nmol of unlabeled dsDNA substrate were incubated in 25 ml of MonoQ A buffer (20 mM HEPES pH7.5, 200 mM KCl, 1 mM NiSO₄, 0.5 mM TCEP) for 2 h at 20° C. to allow DNA cleavage. The product of the reaction was loaded in a MonoQ column equilibrated with MonoQ A buffer, and CasΦ3 R-loop complex was separated from the RNP and the unbound DNA substrate by a salt gradient elution using MonoQ B buffer (20 mM HEPES pH7.5, 2 M KCl, 1 mM NiSO₄, 0.5 mM TCEP). CasΦ3 R-loop eluted at 16-20% of MonoQ buffer B […]. […] 2.5 μL of freshly purified CasΦ3 R-loop complex (Absorbance_{260 nm} of ~1.6) was applied to UltrAuFoil 300 mesh R0.6/1.0 holey grids (Quantifoil), glow-discharged for 60 s at 10 mA (Leica EM ACE200), and plunge-frozen in liquid ethane (pre-cooled with liquid nitrogen) using a Vitrobot Mark IV (FEI, Thermo Fisher Scientific) using the next conditions: blotting time 3 s, 100% humidity and 4° C.
We reconstituted and characterized a functional CasΦ3-crRNA complex (FIG. 5) and determined the structure of the enzyme after severing a target dsDNA by cryo-EM (FIG. 1). […]

B1: CasΦ3 crRNA ; target dsDNA with TTC PAM (NT/T strands) (ssRNA ; dsDNA)
RNA: UAUUGAUUGCCCAGUACGCUGGGACAGCUGGUAAUGGGAUACCUU
DNA 1: GTAATTCAGCTGGTAATGGGATACCTTGTGCTACAGC
DNA 2: GCTGTAGCACAAGGTATCCCATTACCAGCTGAATTAC
B1: binds.
